{
  "source": "the supplement of paper PMC5998384",
  "key": {"HeLa Kyoto [1]": {"system": "HeLa Kyoto", "assay": "solubility change mitosis vs G1/S (difference of NP-40 vs SDS log2 ratios) (log2 ratio difference); higher = more soluble in mitosis"}, "HeLa Kyoto [2]": {"system": "HeLa Kyoto", "assay": "solubility in G1/S (NP-40 vs SDS abundance) (log2 ratio); higher = more soluble", "details": "cell cycle stage: G1/S"}},
  "data": [
    {"sequence": "MPPGKVLQPVLKMKVDELFLYWLSEASTQRMLQDCLRRIKAPGRDQPTPGDGEQPGAWPTAPLAAPRPSGLEPPGTPGPGPALPLGAASSPRNAPHVRGTRRSAGTRVVQTRKEEPLPPATSQSIPTFYFPRGRPQDSVNVDAVISKIESTFARFPHERATMDDMGLVAKACGCPLYWKGPLFYGAGGERTGSVSVHKFVAMWRKILQNCHDDAAKFVHLLMSPGCNYLVQEDFVPFLQDVVNTHPGLSFLKEASEFHSRYITTVIQRIFYAVNRSWSGRITCAELRRSSFLQNVALLEEEADINQLTEFFSYEHFYVIYCKFWELDTDHDLLIDADDLARHNDHALSTKMIDRIFSGAVTRGRKVQKEGKISYADFVWFLISEEDKKTPTSIEYWFRCMDLDGDGALSMFELEYFYEEQCRRLDSMAIEALPFQDCLCQMLDLVKPRTEGKITLQDLKRCKLANVFFDTFFNIEKYLDHEQKEQISLLRDGDSGGPELSDWEKYAAEEYDILVAEETAGEPWEDGFEAELSPVEQKLSALRSPLAQRPFFEAPSPLGAVDLYEYACGDEDLEPL [PPP2R3B]", "values": [
      {"measurement": "solubility change mitosis (log2)", "setting": "HeLa Kyoto [1]", "value": -0.203},
      {"measurement": "solubility in G1/S (log2)", "setting": "HeLa Kyoto [2]", "value": 0.0833}
    ]},
    {"sequence": "MQAEGRGTGGSTGDADGPGGPGIPDGPGGNAGGPGEAGATGGRGPRGAGAARASGPRGGAPRGPHGGAASAQDGRCPCGARRPDSRLLELHITMPFSSPMEAELVRRILSRDAAPLPRPGAVLKDFTVSGNLLFMSVRDQDREGAGRMRVVGWGLGSASPEGQKARDLRTPKHKVSEQRPGTPGPPPPEGAQGDGCRGVAFNVMFSAPHI [CTAG2]", "values": [
      {"measurement": "solubility change mitosis (log2)", "setting": "HeLa Kyoto [1]", "value": -0.32},
      {"measurement": "solubility in G1/S (log2)", "setting": "HeLa Kyoto [2]", "value": 1}
    ]},
    {"sequence": "MQARYSVSSPNSLGVVPYLGGEQSYYRAAAAAAGGGYTAMPAPMSVYSHPAHAEQYPGGMARAYGPYTPQPQPKDMVKPPYSYIALITMAIQNAPDKKITLNGIYQFIMDRFPFYRDNKQGWQNSIRHNLSLNECFVKVPRDDKKPGKGSYWTLDPDSYNMFENGSFLRRRRRFKKKDAVKDKEEKDRLHLKEPPPPGRQPPPAPPEQADGNAPGPQPPPVRIQDIKTENGTCPSPPQPLSPAAALGSGSAAAVPKIESPDSSSSSLSSGSSPPGSLPSARPLSLDGADSAPPPPAPSAPPPHHSQGFSVDNIMTSLRGSPQSAAAELSSGLLASAAASSRAGIAPPLALGAYSPGQSSLYSSPCSQTSSAGSSGGGGGGAGAAGGAGGAGTYHCNLQAMSLYAAGERGGHLQGAPGGAGGSAVDDPLPDYSLPPVTSSSSSSLSHGGGGGGGGGGQEAGHHPAAHQGRLTSWYLNQAGGDLGHLASAAAAAAAAGYPGQQQNFHSVREMFESQRIGLNNSPVNGNSSCQMAFPSSQSLYRTSGAFVYDCSKF [FOXC1]", "values": [
      {"measurement": "solubility change mitosis (log2)", "setting": "HeLa Kyoto [1]", "value": -0.0439},
      {"measurement": "solubility in G1/S (log2)", "setting": "HeLa Kyoto [2]", "value": 0.0673}
    ]},
    {"sequence": "MQIIRHSEQTLKTALISKNPVLVSQYEKLNAGEQRLMNEAFQPASDLFGPITLHSPSDWITSHPEAPQDFEQFFSDPYRKTPSPNKRSIYIQSIGSLGNTRIISEEYIKWLTGYCKAYFYGLRVKLLEPVPVSVTRCSFRVNENTHNLQIHAGDILKFLKKKKPEDAFCVVGITMIDLYPRDSWNFVFGQASLTDGVGIFSFARYGSDFYSMHYKGKVKKLKKTSSSDYSIFDNYYIPEITSVLLLRSCKTLTHEIGHIFGLRHCQWLACLMQGSNHLEEADRRPLNLCPICLHKLQCAVGFSIVERYKALVRWIDDESSDTPGATPEHSHEDNGNLPKPVEAFKEWKEWIIKCLAVLQK [AMZ2]", "values": [
      {"measurement": "solubility change mitosis (log2)", "setting": "HeLa Kyoto [1]", "value": -0.0784},
      {"measurement": "solubility in G1/S (log2)", "setting": "HeLa Kyoto [2]", "value": 0.00677}
    ]},
    {"sequence": "MQVSSLNEVKIYSLSCGKSLPEWLSDRKKRALQKKDVDVRRRIELIQDFEMPTVCTTIKVSKDGQYILATGTYKPRVRCYDTYQLSLKFERCLDSEVVTFEILSDDYSKIVFLHNDRYIEFHSQSGFYYKTRIPKFGRDFSYHYPSCDLYFVGASSEVYRLNLEQGRYLNPLQTDAAENNVCDINSVHGLFATGTIEGRVECWDPRTRNRVGLLDCALNSVTADSEINSLPTISALKFNGALTMAVGTTTGQVLLYDLRSDKPLLVKDHQYGLPIKSVHFQDSLDLILSADSRIVKMWNKNSGKIFTSLEPEHDLNDVCLYPNSGMLLTANETPKMGIYYIPVLGPAPRWCSFLDNLTEELEENPESTVYDDYKFVTKKDLENLGLTHLIGSPFLRAYMHGFFMDIRLYHKVKLMVNPFAYEEYRKDKIRQKIEETRAQRVQLKKLPKVNKELALKLIEEEEEKQKSTWKKKVKSLPNILTDDRFKVMFENPDFQVDEESEEFRLLNPLVSKISEKRKKKLRLLEQQELREKEEEEEPEGKPSDAESSESSDDEKAWVEEVRKQRRLLQQEEKVKRQERLKEDQQTVLKPQFYEIKAGEEFRSFKDSATKQKLMNKTLEDRLKIEAKNGTLSVSDTTVGSKQLTFTLKRSEQQKKQQEAEKLHRQERKRLRRSAGHLKSRHKRGRSFH [NOL10]", "values": [
      {"measurement": "solubility change mitosis (log2)", "setting": "HeLa Kyoto [1]", "value": 0.53},
      {"measurement": "solubility in G1/S (log2)", "setting": "HeLa Kyoto [2]", "value": -1.88}
    ]}
  ]
}
